# Assay results from the nanobody polyreactivity screen of Harvey et al. (2022).
# Experiment: yeast display, Sf9 membrane polyspecificity reagent, FACS + sequencing; frameworks hold sequencing errors
# In short: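 Using colony PCR, genes from sorted yeast display clones were amplified, then sequenced on MiSeq at 2 × 250 and filtered by CDR length. The clones had been stained with 10% biotinylated, detergent-solubilized Sf9 membrane reagent for 1 hour at 4 °C and sorted by FACS into low and high (top ~1%) gates on anti-HA and streptavidin fluorescence. Polyreactivity labels come from the gate of origin.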
row,Sequence,polyreactivity (PSR sort gate)
1,QVQLVESGGGLVQAGGSLRLSCAASGITFPRYAMGWYRQAPGKERELVATITRSGGGTYYADSVKGRFTISRDNAKNTVNLQMNSLKPEDTAVYYCAAGALQRGVYGYGYWGQGTQVTVSS,high polyreactivity
2,QVQLVESGGGLVQAGGSLRLSCAASGITFPSYVMGWYRQAPGKEREFVAAITGSAGSTYYADSVKGRFTISRDNAKYTVYLQMNSLKPEDTAVYYCAARVRYVNPKYYYWGQGTQVTVSS,high polyreactivity
3,QVQLVESGGGLVQAGGSLRLSCAASGITFPYYAMGWYRQAPGKERELVAAISDGGSTNYADSVKGRFTISRDNAKNTVYLQMNSLKPEDTAVYYCAADYRYLFDYWGQGTQVTVSS,high polyreactivity
4,QVQLVESGGGLVQAGGSLRLSCAASGITFQGNAMGWYRQAPGKERELVAAISSGGNTHYADSVKGRFTISRDNAKNTVYLQMNSLKPEDTAVYYCAASYYYTYYWGQGTQVTVSS,low polyreactivity
5,QVQLVESGGGLVQAGGSLRLSCAASGITFQKNAMGWDRPAPGKEMEWVAGITWRGSTYYADSVKGRFTISRDNAKNTVYLQMNSLKPEETAVYYCAADPFYWYRSVRGEYWGQGTQVTVSS,low polyreactivity
6,QVQLVESGGGLVQAGGSLRLSCAASGITFQKNAMGWYRKAPGKERELVAGITWRGSTYYADSVKGRFTISRDNAKNTVYLQMNSLKPEDTAVYYCAADPFYWYRSFRGEYWGKGTQVTVSS,low polyreactivity
7,QVQLVESGGGLVQAGGSLRLSCAASGITFQRNAMGWYRQAPGKERELVAVITSIGGRTYYADSVKGRFTISRDNAKNTVYLQMNSLKPEDTAVYYCNAASATRSADWYDYDYWGQGTQVTVSS,high polyreactivity
8,QVQLVESGGGLVQAGGSLRLSCAASGITFQRYAMGWYRQAPGKERELVAAISTNGGTTYYADSVKGRFTISRDNAKNTVYLQMNSLKPEDTAVYYCNAESGYVYYFRYNYLGQGTQVTVSS,high polyreactivity
9,QVQLVESGGGLVQAGGSLRLSCAASGITFQRYAMGWYRQAPGKERELVAAITRGGSTNYADSVKGRFTISRDNAKNTVYLQMNSLKPEDTAVYYCAAGYKITSVYGFYYWGQGTQVTVSS,high polyreactivity
10,QVQLVESGGGLVQAGGSLRLSCAASGITFQRYVMGWYRQAPGKERELVAAISFSGSSTYYADSVKGRFTISRDNAKNTVYLQMNSLKPEDTAVYYCAADGSVPKYVPYPRYYGYGYWGQGTQVTVSS,high polyreactivity
11,QVQLVESGGGLVQAGGSLRLSCAASGITFQTYAMGWYRQAPGKERELVAAIRWGGGTTYYADSVKGRFTISRDNAKNTVYLQMNSLKPEDTAVYYCAARTYYRRGGRVDYWGQGTQVTVSS,high polyreactivity
12,QVQLVESGGGLVQAGGSLRLSCAASGITFQTYTMGWYRQAPGKERELVATISWNGGSTYYADSVKGRFTISRDNAKNTVYLQMNSLKPEDNAVYDCATGKWGYFRYNYWGQGTQVTVSS,high polyreactivity
13,QVQLVESGGGLVQAGGSLRLSCAASGITFQYNAMGWYRQAPGKERELVAAINYSGGSTYYADSVKGRYTISRDNAKNTVYLQMNSLKPEDTAVYYCAKDGTDYSHRPGKWEFDSWGQGTQVSVSS,low polyreactivity
14,QVQLVESGGGLVQAGGSLRLSCAASGITFRANAMGWYRQAPGKERELVAAISARGGSTYYADSVKGRFTISRDNAKNTVYLQMNSLKPEDTAVYYCNAVAYRSRSEYDYWGQGTQVTVSS,high polyreactivity
15,QVQLVESGGGLVQAGGSLRLSCAASGITFRDYAMGWYRQAPGKERELVAAISTRGVRTYYADSVKGRFTISRDNAKNTVYLQMNSLKPEDTAVYYCAARSVTYWWVGYEFYYWGQGTQVTVSS,high polyreactivity
16,QVQLVESGGGLVQAGGSLRLSCAASGITFRFYAMGWYRQAPGKERELVAVISRGGGTTYYADSVKGRFTISRDNAKNTVYLQMNSLKPADTSVYYCAADYYYVQSELGYDYWGQGTQVTVSS,high polyreactivity
17,QVQLVESGGGLVQAGGSLRLSCAASGITFRHNAMGWYRQAPGKERELVAAISRRTYYSDSVKGRFTISRDNAKNTVYLQMNSLKPEDTAVYYCAKDVDYVSDSPYDYWGQGTQVTVSS,low polyreactivity
18,QVQLVESGGGLVQAGGSLRLSCAASGITFRLYAMGWYRQAPGKERELVAAITGSGGRTYYADSVKGRFTISRDNAKNTVYLQMNSLNPEDTAVFYCNVYPPYAMDYWGQGTQVTVSS,high polyreactivity
19,QVQLVESGGGLVQAGGSLRLSCAASGITFRRNAMGWYRQAPGKERELFAGITRGGTTKYADSVKGRFTISRDNAKNTVYLQMNSLKPEDTAVYFCAAKDNSYGGPPQFGYWGQGTQVTVSS,high polyreactivity
20,QVQLVESGGGLVQAGGSLRLSCAASGITFRRYAMGWYRPAPGKERELVASISRGGSTYYADSVKGRFTISRDNAKNTVYLQMNSLTPEDTAVYYCAADVAGRYDYWGQGTQVTVSS,high polyreactivity
21,QVQLVESGGGLVQAGGSLRLSCAASGITFRRYAMGWYRQAPGKERELVASITSGGSTNYADSVKGRFTISRDNAKNTVYLQMNSLKPEDTAVYYCAADSRWGMDYWGQGTQVTVSS,high polyreactivity
22,QVQLVESGGGLVQAGGSLRLSCAASGITFRTNTMGWYRQAPGKEREFVAAISSNGGRTYYADSVKGRFTISRDNAKNTVYLQMNSLKPEDTAVYYCNARTKHRYEYDYWGQGTQVTVSS,high polyreactivity

row,Sequence,polyreactivity (PSR sort gate)
1,QVQLVESGGGLVQAGGSLRLSCAASGITFRTYAMGWNRQAPGKERELVAAITRRGGSTYYADSVKGRFTISRDNAKNTVYLQMNSLKPEDTAVYYCAVRHNGIQASVGYDYWGQGTQVTVSS,high polyreactivity
2,QVQLVESGGGLVQAGGSLRLSCAASGITFRVNTMGWYRKAPGKETEFVATISYSGDSTYYADSVKGRFTISRDNAKNTVYLQMNSLKPEDTAVYYCATELVFYGRDYWGQGTQVTVSS,low polyreactivity
3,QVQLVESGGGLVQAGGSLRLSCAASGITFRWNAMGWYRQAPGKERELVAAITTRGGGTYYADSVKGRFTISRDNAKNTVYLQMNSLKPEDTAVYYCAAKKSRYPYNYWGQGTQVTVSS,high polyreactivity
4,QVQLVESGGGLVQAGGSLRLSCAASGITFRWYAMGWYRQAPGKERELVAAIRSGSSTYYADSVKGRFTISRDNAKNTVYLQMNSLKPEDPAVYYCNARPWYSWGVDYDYWGQGTQVTVSS,low polyreactivity
5,QVQLVESGGGLVQAGGSLRLSCAASGITFRWYAMGWYRQAPGKERELVAAISSSGGSTYYADSVKGRFTISRDNAKNTVYLQMNSLKPEVTAVYYCAAYTSYASDYWGQGTQVTVSS,high polyreactivity
6,QVQLVESGGGLVQAGGSLRLSCAASGITFRYYAMGWSRQAPGKERELVAAITRGGRTNYADSVKGRFTISRDNAKNTVYLQMNSLKPEDTAVYYCATGRDSNFGNSYYYWGQGTQVTVSS,high polyreactivity
7,QVQLVESGGGLVQAGGSLRLSCAASGITFRYYAMGWYRPAPGKERELVASITSGGVNTYYADSVKGRFTISRDNAKNTVYLQMNSLKPEDTAVYYCATTYVGETLTGPGDYWGQGTQVTVSS,low polyreactivity
8,QVQLVESGGGLVQAGGSLRLSCAASGITFRYYAMGWYRQAPGKERELVATITRGGSTYYADSVKGRFTISRDNAKNTVYLQMNSLKPEDTAVYYCAARQWYRYKVRFDYWGQGTQVTVSS,high polyreactivity
9,QVQLVESGGGLVQAGGSLRLSCAASGITFRYYAMGWYRQGPGKERELVASITSGGVNTYYADSVKGRFTISRDNANNTDYLQMNSLKPEDTAVFYCATRFSYSALGGYDYWGQGTQVTVSS,low polyreactivity
10,QVQLVESGGGLVQAGGSLRLSCAASGITFSANAMGWYRQAPGKERELVATITWSGGSTYYADSVKGRFTISRDNAKNTVYLQMNSLKPEDTAVYYCNARSYDEYPYYSYNYWGQGTQVTVSS,low polyreactivity
11,QVQLVESGGGLVQAGGSLRLSCAASGITFSAYAMGWYRQAPGKERELVAAISWSGGNTYYADSVKGRFTISRDNAKNTVYLQMNSLKPEDTAVYYCAAEREAYNTWFDYWGQGTQVTVSS,high polyreactivity
12,QVQLVESGGGLVQAGGSLRLSCAASGITFSRNPMGWYRQAPGKEWELVAAISWSGGSTYYADSVKGRYTISRDNAKNTVYLQMNSLKPEDTAVYYCNVGRRERLEGGYWGQGTQVTVSS,high polyreactivity
13,QVQLVESGGGLVQAGGSLRLSCAASGITFSRYAMGWYRQAPGKERELVAAISKRGGRTYYADSVKGRFTISRDNAKKTDYLQMNSLKPEDTAVYYCATDYYVSTDYNYWGQGTQVTVSS,high polyreactivity
14,QVQLVESGGGLVQAGGSLRLSCAASGITFSVNAMGWYRQAPGKERELVASISSGGSTNYADSVKGRFTISRDNAKNTVYLQMNSLKPEDTAVYYCAVAYYPHGREGAHFQYGYDYWGQGTQVTVSS,low polyreactivity
15,QVQLVESGGGLVQAGGSLRLSCAASGITFSVYAMGWYRQAPGTERELVAAISGSAGSTYYADSVKGRFTISRDNAKNTVYLQLNSLKPEDTAVYYCAARLAPKYSPSSYNYWGEGTQVTVSS,high polyreactivity
16,QVQLVESGGGLVQAGGSLRLSCAASGITFSVYTMGWYRQAPGKERELVAAIDSDGITNYADSVKGRFTISRDNAKNTVYLQMNSLKPEDTAVYYCAKQSGRADGVSGFDYWGQGTQVTVSS,low polyreactivity
17,QVQLVESGGGLVQAGGSLRLSCAASGITFSWYVMGWSRQAPGKERDLVATITNRGGSTYYADSVKGRFTISRDNAKNTVYLQMNSLKPEDTAVYYCAARKKGSRVGYDYWGQGTQVTVSS,high polyreactivity
18,QVQLVESGGGLVQAGGSLRLSCAASGITFSYYAMGWYRQAPGKERELVAASTSGGSTKYADSVKGRFTISRDNAKNTVYFQMNSLKPEDTAVYYCAVRIRRSHDYDYWGQGPQVTVSS,low polyreactivity
19,QVQLVESGGGLVQAGGSLRLSCAASGITFTAYAMGWYRQAPGKERELVATINSTGITNYADSVKGRFTISRDNAKNTVYLQMNSLKPEDTAVYYCAADLLDISSYDGMDYWGHGTQVTVSS,low polyreactivity
20,QVQLVESGGGLVQAGGSLRLSCAASGITFTGNSMGWYRQAPGKERELVAAISNRGGSTYYADSVKGRFTISRDNAKNTVYLQMNSLKREDTAVYYCRTSTPRRVSGNYWGQGTQVTVSS,high polyreactivity
21,QVQLVESGGGLVQAGGSLRLSCAASGITFTGYAMGWYRQAPGKERELVAVISETGGSTYADSVKGRFTISRDNAKNTVYLQMNSLKPEDTAVYYCAARLWWPYSTAWAKMDYWGQGTQVTVSS,low polyreactivity
